{"source": "paper PMC6138639", "about": "“The ZZ-type zinc finger of ZZZ3 modulates the ATAC complex-mediated histone acetylation and gene activation” (Nature Communications, 2018)", "target": "ZZZ3 ZZ domain (aa 800–903), GST cleaved (human) (UniProt Q8IYH5)", "sequence (Q8IYH5 800-903)": "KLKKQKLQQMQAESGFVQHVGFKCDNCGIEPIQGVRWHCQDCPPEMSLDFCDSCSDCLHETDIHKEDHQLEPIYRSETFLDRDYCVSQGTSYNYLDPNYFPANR", "assay": "other fluorescence titration; tryptophan fluorescence; 1.0 µM ZZZ3 ZZ (aa 800–903) with increasing histone peptide; 25 °C; 20 mM Tris–HCl pH 7.2, 150 mM NaCl, 1 mM DTT; triplicates", "data": [{"substance": "H3K4ac peptide of the tryptophan fluorescence and NMR titration experiments", "values": [{"measurement": "Kd", "value": 8.2, "unit": "µM"}]}, {"substance": "unmodified H3 peptide of the tryptophan fluorescence and NMR titration experiments", "values": [{"measurement": "Kd", "value": 29, "unit": "µM"}]}]}
